The record followed here is patent US8481032B2, “Lipocalin-2 antibodies for methods of treatment” (The University of Hong Kong, priority 2006, dated 2013).

The subject of one data set is T2DM patients. In words: Rosiglitazone treatment of T2DM patients: serum lipocalin-2 and metabolic parameters. It is filed as in vivo, human. The conditions noted are these: 32 T2DM patients, rosiglitazone 4 mg twice daily, 8 weeks. The method, then: The affinity-purified anti-human or anti-murine lipocalin-2 IgG was biotinylated with a kit from Pierce and used as the detection antibodies. The unlabeled anti-human or anti-murine lipocalin-2 IgG was used for coating a 96-well microtiter plate overnight at 4° C. Human or mouse serum was diluted (1:50) into PBS, and 100 μl of the diluted samples or recombinant standards were applied to each well and incubated at 37° C. for 1 h. The plates were washed three times and then incubated with 100 μl of the detection antibody for another 2 h. After washing for another three times with PBS, the wells were incubated with streptavidin-conjugated horseradish peroxidase for 1 h and subsequently reacted with tetramethyl-benzidine reagent for 15 min. A total of 100 μl of 2 M H2SO4 was added to each well to stop the reaction, and the absorbance at 450 nm was measured. The intra- and inter-assay coefficients of variance were determined by measuring five serum samples in a total of six independent assays with duplicate determinations.
The effect of rosiglitazone on serum levels of lipocalin-2 was investigated in 32 T2DM patients (see Example 2) treated with this drug (4 mg twice daily) for 8 weeks.

Data set [1] concerns L6 myotubes. Kind of data set: 2-deoxyglucose uptake in L6 myotubes. The format is cell-based, rat. The method, then:
FIG. 6 is a bar graph of 2-deoxyglucose uptake (arbitrary units) in L6 myotubes treated without or with indicated concentrations of lipocalin-2 for 48 hr, and then stimulated without or with insulin for another 20 min. The rate of glucose uptake was measured by uptake of 2-deoxy-D-[^3H]glucose. * P<0.05 versus untreated cells; # P<0.05 versus cells treated with insulin alone (n=4-6).
(§1) Rat L6 skeletal myoblasts were grown in α-minimum essential medium (αMEM) containing 10% (v/v) FBS and 1% antibiotic solution (100 units/ml penicillin, 100 μg/ml streptomycin, 250 ng/ml amphotericin B) in a humidified atmosphere of 95% air and 5% CO2 at 37° C. For differentiation to myotubes, cells were cultured in αMEM containing 2% (v/v) FBS for 5-7 days.
Cells were incubated with various concentration of lipocalin-2 for 20 h, subsequently serum-starved in the continued presence of lipocalin-2 for the final 4 h in 24-well plates prior to further treatment. Cells were then washed twice with PBS and treated with insulin or vehicle for 15 min. After treatments, glucose uptake was determined. Briefly, cells were incubated in transport solution (140 mM NaCl, 20 mM HEPES-Na, 2.5 mM MgSO4, 1 mM CaCl2, 5 mM KCl and 0.5 μCi/ml 2-deoxy-D-[^3H]glucose, pH 7.4) for 5 min at room temperature. Nonspecific uptake was measured in the presence of cytochalasin B (10 μM). Cells were then lysed with 1 M KOH, and aliquots were transferred to scintillation vials for ^3H radioactivity counting.

In data set [2] the test system is genes involved in glucose and lipid metabolism in skeletal muscle and liver. In words: mRNA expression of genes involved in glucose and lipid metabolism in skeletal muscle and liver of lipocalin-2-treated mice. The conditions noted are these: versus vehicle. The format is in vivo, mouse. The method, then:
Total RNA was isolated from mouse liver, epididymal adipose tissue and soleus muscle using the RNeasy kit (Qiagen). Subsequently, mRNA was reverse transcribed into cDNA using the oligo-dT primer (Roche). The relative gene abundance was quantified by Taqman real-time PCR using the pre-developed assay kits (Applied Biosystems, Foster city, CA). The reactions were performed on the ABI 7000 sequence detection system.
(§2) To evaluate the effect of lipocalin-2 on glucose homeostasis and insulin sensitivity, normal C57 mice were treated with murine lipocalin-2 by intraperitoneal injection of the recombinant protein (5 mg protein/kg body weight, twice a day at 12 hr intervals).
The effects of lipocalin-2 on mRNA expression of several genes involved in glucose and lipid metabolism in skeletal muscle and liver were investigated (FIGS. 4A-4B).

A further data set has as its system C57 mice. Kind of data set: Chronic treatment of C57 mice with recombinant lipocalin-2: body weight, food intake, metabolic parameters, ipGTT and ITT. It is filed as in vivo, mouse. On the procedure: Fasting (16 hr) plasma glucose levels and triglyceride (TG) concentrations were measured by using a Glucose (GO) assay kit (Sigma) and Triglyceride GPO reagent (Pointe Scientific Inc., Lincoln Park, Mich., USA) respectively. Fasting serum insulin concentrations were quantified by using the commercial ELISA kits from Mercodia AB (Uppsala, Sweden). Serum total cholesterol and free fatty acids (FFAs) were analyzed by using the kits from Wako (Richmond, Va., USA) and Roche Diagnostics respectively. TG contents in liver and soleus muscle were analyzed as described elsewhere (Ellis, B. A et al., Am J Physiol Endocrinol Metab. 279:E554-560 (2000); Xu, A., et al. J Clin Invest 112:91-100 (2003)).
For ipGTT, overnight fasted mice (16 hr) were given a glucose load by intraperitoneal injection (1 g glucose/kg body weight). For ITT, mice were starved for 6 h, and then intraperitonally injected with insulin (1 U/kg body weight). Plasma glucose levels were measured at different time points as indicated.
as §2

Data set [3] concerns L6 myotubes. Kind of data set: Fatty acid uptake, fatty acid oxidation and triglyceride accumulation in L6 myotubes. The format is cell-based, rat.
Text: FIG. 5A is a bar graph of […] ^3H-palmitate uptake (fold over control) in differentiated L6 myotubes treated with the indicated concentrations of lipocalin-2 or vehicle for 48 hr. FIG. 5B is a bar graph of ^14C-oleate oxidation (fold over control) in differentiated L6 myotubes treated with the indicated concentrations of lipocalin-2 or vehicle for 48 hr. Fatty acid oxidation was quantified by the production of ^14CO2 from [1-^14C]oleate. * P<0.05; ** P<0.01 versus untreated cells.
as §1
[^3H]-palmitic acid (Amersham, Quebec, Canada) was used to determine fatty acid uptake as previously described (Bastie, C. C., et al. Diabetes, 53:2209-2216 (2004)). with slight modifications. […] After treatments, culture medium was removed and cells washed twice with wash buffer (140 mM NaCl, 20 mM HEPES-Na, 2.5 mM MgSO4, 1 mM CaCl2, 5 mM KCl pH 7.4, 0.1% defatted albumin) and once with HEPES buffer. Cells were subsequently incubated with transport solution (10 μM defatted albumin, 0.5 μCi/ml [^3H]-palmitic acid; FA:BSA ratio=2) for 1 minute at room temperature. Then the reaction was stopped by washing with pre-cold stop buffer (140 mM NaCl, 20 mM HEPES-Na, 2.5 mM MgSO4, 1 mM CaCl2, 5 mM KCl pH 7.4) Non-specific uptake was measured in the presence of excess palmitate (2 mM) and subtracted from all other values. Cells were then lysed with 1 M KOH and aliquots were transferred to scintillation vials for ^3H radioactivity counting.

Setting [4] is: L6 myotubes, acute treatment within 2 hr (data not shown).
[5] abbreviates: liver tissue of lipocalin-2-treated mice.
[6] abbreviates: skeletal muscle of lipocalin-2-treated mice.
Setting [7] is: fasting, recombinant lipocalin-2 5 mg/kg i.p. twice a day, 4 weeks.
[8] abbreviates: recombinant lipocalin-2 5 mg/kg i.p. twice a day, 4 weeks.

Take `CN(CCOc1ccc(CC2SC(=O)NC2=O)cc1)c1ccccn1` (centres unmarked) [rosiglitazone]: in the data set on T2DM patients, the “Body Mass Index” value is 25.5 ± 3.6 Kg/m^2, the “Fasting Glucose” value is given as 6.8 ± 1.2 mM, the “Fasting Insulin” value was determined as 7.9 ± 3.5 mIU/l and the HOMA-IR was 2.4 ± 1.2. Further, the “Lipocalin-2 (serum level)” value in the data set with T2DM patients was 61.9 ± 25.9 ng/mL.

B1: Lipocalin-2: recombinant murine lipocalin-2 expressed in BL21 cells, His6 tag and endotoxin removed (protein)
chain: QDSTQNLIPAPSLLTVPLQPDFRSDQFRGRWYVVGLAGNAVQKKTEGSFTMYSTIYELQENNSYNVTSILVRDQDQGCRYWIRTFVPSSRAGQFTLGNMHRYPQVQSYNVQVATTDYNQFAMVFFRKTSENKQYFKITLYGRTKELSPELKERFTRFAKSLGLKDDNIIFSVPTDQCIDN
modifications: left off: small tags and cut ends
notes: recombinant murine lipocalin-2 expressed in BL21 cells, His6 tag and endotoxin removed
As to B1, in the data set on L6 myotubes [1] (L6 myotubes at 48 hr after lipocalin-2 treatment), the basal glucose uptake result was “significantly decreased”. Also, the “basal and insulin-stimulated glucose uptake, acute treatment” value in the data set on L6 myotubes [1] (setting [4]) is given as “no obvious effects”. For the same molecule, in the data set with L6 myotubes [1] (L6 myotubes, lipocalin-2-treated, not statistically significant), the “magnitude of insulin-stimulated increase in glucose uptake, versus untreated cells” value is on record as “slightly lower”. Besides, in data set [2] (setting [5]), the “expression of glucose-6-phosphatase (G6P)” value is given as “modest, but significant increase”; the “expression of phosphoenolpyruvate carboxylase (PEPCK)” value is “modest, but significant increase”; the “expression of several genes involved in fatty acid transport, synthesis and oxidation” value is “did not modulate”. Besides, in data set [2] (setting [6]), the “expression of GLUT1” value is “decreased”; the “expression of GLUT4, acetyl CoA carboxylase (ACO) and several other fatty acid transport proteins (FATP2, 3 and 5, and CD36)” value was “did not affect”; the “expression of acyl-CoA oxidase” value is on record as “inhibited”; the “expression of uncoupling protein 2 (UCP2)” value was “inhibited”. In addition, in data set [2] (setting [6]), the “steady-state mRNA level of fatty acid transport protein 1 (FATP-1)” value is recorded as “significantly increased” and the “steady-state mRNA level of fatty acid transport protein 4 (FATP-4)” value is on record as “significantly increased”. Besides, in the data set on C57 mice (5 mg protein/kg i.p. twice a day at 12 hr intervals), the “daily average of serum lipocalin-2 levels, higher than that of the endogenous protein” value is listed as 2.2-3.5 folds. Moreover, in the data set on C57 mice (setting [7]), the Plasma glucose is listed as 137.4 ± 11.6 mg/dL, the Plasma insulin was found to be 1.5 ± 0.04 ng/mL and the “Serum TG” value is reported as 93.9 ± 8.9 mg/dL. In the data set with C57 mice (long-term lipocalin-2 treatment, day 24, 1 g glucose/kg i.p.), the “glucose tolerance (ipGTT)” value is “induced glucose intolerance”. Besides, the “insulin sensitivity (ITT)” value in the data set with C57 mice (long-term lipocalin-2 treatment, day 26, insulin 1 U/kg i.p.) is “decreased insulin sensitivity”. Moreover, in the data set with C57 mice (setting [8]), the “Serum FFAs” value amounted to 0.72 ± 0.08 mmol/L, the Serum adiponectin turned out to be 7.9 ± 1.8 µg/mL, the Serum total cholesterol is 101.4 ± 8.8 mg/dL and the “TG contents in liver” value worked out at 6.9 ± 0.8 mg/g tissue. Besides, the “TG contents in muscle” value with C57 mice (setting [8]) turned out to be 7.3 ± 0.8 mg/g tissue. The “triglyceride accumulation, increase compared with untreated cells” value in the data set on L6 myotubes [3] (L6 myotubes at 72 hr following lipocalin-2 treatment, n=4, p<0.05) was 1.51±0.58 folds. For the same molecule, the “fatty acid uptake and oxidation, acute treatment” value in the data set with L6 myotubes [3] (setting [4]) is listed as “no obvious effects”. Also, the fatty acid uptake entry in the data set on L6 myotubes [3] (L6 myotubes, prolonged incubation with lipocalin-2 (24 h and 48 h), 3H-palmitate) was “significant increase”. Further, the “rate of fatty acid oxidation” value in the data set with L6 myotubes [3] (L6 myotubes, prolonged incubation with lipocalin-2 (24 h and 48 h), 14C-oleate) is given as “decrease”.
